Patent US20180140673A1

molecular target: FGF receptor/BKL complex on HEK293 cells overexpressing human beta-klotho (BKL) (human) (UniProt Q86Z14); assay: cell-based or functional assay
Sequence (Q86Z14 whole entry, one chain of several): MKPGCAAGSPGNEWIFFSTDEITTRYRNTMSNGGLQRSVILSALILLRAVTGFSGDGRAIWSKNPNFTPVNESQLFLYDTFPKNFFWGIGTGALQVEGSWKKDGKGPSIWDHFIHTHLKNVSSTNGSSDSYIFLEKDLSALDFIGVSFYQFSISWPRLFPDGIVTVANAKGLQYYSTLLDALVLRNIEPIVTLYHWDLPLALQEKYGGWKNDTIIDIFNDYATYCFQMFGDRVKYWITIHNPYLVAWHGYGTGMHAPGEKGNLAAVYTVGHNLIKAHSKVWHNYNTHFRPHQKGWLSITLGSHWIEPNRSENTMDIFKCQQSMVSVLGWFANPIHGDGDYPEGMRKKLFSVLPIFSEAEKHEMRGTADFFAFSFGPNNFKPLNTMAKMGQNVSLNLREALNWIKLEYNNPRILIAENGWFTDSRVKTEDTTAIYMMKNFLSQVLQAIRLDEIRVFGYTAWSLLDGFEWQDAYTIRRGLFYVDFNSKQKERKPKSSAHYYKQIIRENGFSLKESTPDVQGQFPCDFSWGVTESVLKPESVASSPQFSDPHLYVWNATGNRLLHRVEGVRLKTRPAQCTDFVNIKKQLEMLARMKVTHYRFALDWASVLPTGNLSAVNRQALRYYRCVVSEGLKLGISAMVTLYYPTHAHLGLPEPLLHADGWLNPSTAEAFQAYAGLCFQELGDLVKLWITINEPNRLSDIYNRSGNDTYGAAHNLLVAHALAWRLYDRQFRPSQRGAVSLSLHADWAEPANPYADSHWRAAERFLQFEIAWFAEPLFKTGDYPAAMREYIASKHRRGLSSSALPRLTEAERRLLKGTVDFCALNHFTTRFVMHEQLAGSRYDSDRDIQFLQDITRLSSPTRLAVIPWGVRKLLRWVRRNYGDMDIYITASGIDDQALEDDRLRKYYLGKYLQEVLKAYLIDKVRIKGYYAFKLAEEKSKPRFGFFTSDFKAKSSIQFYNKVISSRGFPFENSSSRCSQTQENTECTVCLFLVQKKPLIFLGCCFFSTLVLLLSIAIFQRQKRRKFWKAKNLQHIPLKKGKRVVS

4-[10-[[(1S)-4-[2-[2-[2-[2-[2-[2-[[(1S)-5-acetamido-1-carboxy-pentyl]amino]-2-oxo-ethoxy]ethoxy]ethylamino]-2-oxo-ethoxy]ethoxy]ethylamino]-1-carboxy-4-oxo-butyl]amino]-10-oxo-decoxy]benzoic acid]-Ala, sequence (Q9NSA1 other isoform, or with tags, fused parts or gaps limits assumed): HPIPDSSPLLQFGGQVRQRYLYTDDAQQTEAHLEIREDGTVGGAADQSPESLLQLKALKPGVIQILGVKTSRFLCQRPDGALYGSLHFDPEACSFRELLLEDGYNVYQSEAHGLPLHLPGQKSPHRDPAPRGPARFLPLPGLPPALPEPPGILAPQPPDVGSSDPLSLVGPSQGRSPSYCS

Row | Substance | EC50 (0.1% HSA) (nM), pERK, HEK293/BKL cells [nM] | EC50 (nM), pERK, HEK293/BKL cells [nM]
1 | 4-[10-[[4-[2-[2-[2-[2-[2-[2-[[(1S)-5-acetamido-1-carboxy-pentyl]amino]-2-oxo-ethoxy]ethoxy]ethylamino]-2-oxo-ethoxy]ethoxy]ethylamino]-4-oxo-butyl]sulfonylamino]-10-oxo-decoxy]benzoic acid]-Ala[Gln121,Leu168,Cys180]FGF21 (from UniProt Q9NSA1 29-209) (ligand) | 4 | 3.2
2 | 4-[10-[[(1S)-4-[2-[2-[2-[2-[2-[2-[[(1S)-5-acetamido-1-carboxy-pentyl]amino]-2-oxo-ethoxy]ethoxy]ethylamino]-2-oxo-ethoxy]ethoxy]ethylamino]-1-carboxy-4-oxo-butyl]amino]-10-oxo-decoxy]benzoic acid]-Ala[Gln121,Leu168,Cys180]FGF21 (from UniProt Q9NSA1 29-209) (ligand) | 3 | 5
3 | 12-[[4-[[(1S)-4-[2-[2-[2-[2-[2-[2-(2-acetamidoethylamino)-2-oxo-ethoxy]ethoxy]ethylamino]-2-oxo-ethoxy]ethoxy]ethylamino]-1-carboxy-4-oxo-butyl]carbamoyl]cyclohexyl]methylamino]-12-oxo-dodecanoic acid-Ala[Gln121,Leu168,Cys180]FGF21 (from UniProt Q9NSA1 29-209) (ligand) | 4.7 | 4
4 | 12-[[(1S)-4-[[(1S)-4-[2-[2-[2-[2-[2-[2-[[(1S)-5-acetamido-1-carboxy-pentyl]amino]-2-oxo-ethoxy]ethoxy]ethylamino]-2-oxo-ethoxy]ethoxy]ethylamino]-1-carboxy-4-oxo-butyl]amino]-1-carboxy-4-oxo-butyl]amino]-12-oxo-dodecanoic acid-Ala[Gln121,Leu168,Cys180]FGF21 (from UniProt Q9NSA1 29-209) (ligand) | 6.1 | 7.9

Now from value to substance:

Row | EC50 (0.1% HSA) (nM), pERK, HEK293/BKL cells [nM] | EC50 (nM), pERK, HEK293/BKL cells [nM] | Substance
5 | 132 | 24.7 | 4-[10-[[4-[2-[2-[2-[2-[2-[2-[[(1S)-5-acetamido-1-carboxy-pentyl]amino]-2-oxo-ethoxy]ethoxy]ethylamino]-2-oxo-ethoxy]ethoxy]ethylamino]-4-oxo-butyl]sulfonylamino]-10-oxo-decoxy]benzoic acid-Ala[Gln121,Leu168,Cys181]FGF21 (from UniProt Q9NSA1 29-208) (ligand)
6 | 138 | 26.4 | 4-[10-[[(1S)-4-[2-[2-[2-[2-[2-[2-[[(1S)-5-acetamido-1-carboxy-pentyl]amino]-2-oxo-ethoxy]ethoxy]ethylamino]-2-oxo-ethoxy]ethoxy]ethylamino]-1-carboxy-4-oxo-butyl]amino]-10-oxo-decoxy]benzoic acid]-Ala[Gln121,Leu168,Cys181]FGF21 (from UniProt Q9NSA1 29-208) (ligand)
7 | 3.4 | 8.4 | 12-[[(1S)-4-[2-[2-[2-[2-[2-[2-[[(1S)-5-acetamido-1-carboxy-pentyl]amino]-2-oxo-ethoxy]ethoxy]ethylamino]-2-oxo-ethoxy]ethoxy]ethylamino]-1-carboxy-4-oxo-butyl]amino]-12-oxo-dodecanoic acid-Ala[Gln121,Leu168,Cys180]FGF21 (from UniProt Q9NSA1 29-209) (ligand)
8 | 3.2 | 3.5 | 16-[[4-[[(1S)-4-[2-[2-[2-[2-[2-[2-(2-acetamidoethylamino)-2-oxo-ethoxy]ethoxy]ethylamino]-2-oxo-ethoxy]ethoxy]ethylamino]-1-carboxy-4-oxo-butyl]carbamoyl]cyclohexyl]methylamino]-16-oxo-hexadecanoic acid-Ala[Gln121,Leu168,Cys180]FGF21 (from UniProt Q9NSA1 29-209) (ligand)
